From publication PMC5681435 (2017)

B1: untagged p16INK4a [not stated] / GSTCDK4 [human] (parent complex)
chain 1: MEPAAGSSMEPSADWLATAAARGRVEEVRALLEAGALPNAPNSYGRRPIQVMMMGSARVAELLLLHGAEPNCADPATLTRPVHDAAREGFLDTLVVLHRAGARLDVRDAWGRLPVDLAEELGHRDVARYLRAAAGGTRGSNHARIDAAEGPSDIPD
chain 2: MATSRYEPVAEIGVGAYGTVYKARDPHSGHFVALKSVRVPNGGGGGGGLPISTVREVALLRRLEAFEHPNVVRLMDVCATSRTDREIKVTLVFEHVDQDLRTYLDKAPPPGLPAETIKDLMRQFLRGLDFLHANCIVHRDLKPENILVTSGGTVKLADFGLARIYSYQMALTPVVVTLWYRAPEVLLQSTYATPVDMWSVGCIFAEMFRRKPLFCGNSEADQLGKIFDLIGLPPEDDWPRDVSLPRGAFPPRGPRPVQSVVPEMEESGAQLLLEMLTFNPHKRISAFRALQHSYLHKDEGNPE

Variants of: B1
Experiment: HTRF displacement assay; CDK4 8 nM; value read at the highest [INK] point, about 500 nM; read off a plot

Row | response [% Inhibition] | Variant
1 | ~58 | chain 1 D84N
